Laboratory results from FireProtDB.

B1: Ribonuclease HI, P0A7Y4 (parent)
chain: MLKQVEIFTDGSCLGNPGPGGYGAILRYRGREKTFSAGYTRTTNNRMELMAAIVALEALKEHCEVILSTDSQYVRQGITQWIHNWKKRGWKTADKKPVKNVDLWQRLDAALGQHQIKWEWVKGHAGHPENERCDELARAAAMNPTLEDTGYQVEV

Variants of: B1
Settings: Escherichia coli (strain K12); pH 3; 50.1 °C; Thermal; CD; glycine-HCl 10 mM; NaCl 0.1 M; reversible: yes; structure 2RN2; whole UniProt chain shown

Variant | ddG of mutation (higher = less stable) [kcal/mol]
K117R | 0.06
G23A | -0.7
A52V | -1.7
H62D | -0.67
H62P | -1
H62R | 0.03
Q76L | -0.24
E135K | 1.1
R41C | -0.12

Same assay, conditions: Escherichia coli (strain K12); pH 3; Thermal; CD; glycine-HCl 10 mM; NaCl 0.1 M; reversible: yes; structure 2RN2; whole UniProt chain shown

Variant | Tm [°C] | change of melting temperature, mutant - wild type (higher = more stable) [°C] | unfolding enthalpy (van 't Hoff) [kcal/mol]
K117R | 49.9 | -0.2 | 97.1
G23A | 52.4 | 2.3 | 99.3
A52V | 55.6 | 5.5 | 128
H62D | 52.3 | 2.2 | 118
H62P | 53.5 | 3.4 | 110
H62R | 50 | -0.1 | 114
Q76L | 50.9 | 0.8 | 110
E135K | 46.4 | -3.7 | 99

Same assay, conditions: Escherichia coli (strain K12); pH 5.5; 52.7 °C; Thermal; CD; Sodium acetate 20 mM; NaCl 0.1 M; reversible: yes; structure 2RN2; whole UniProt chain shown

Variant | ddG of mutation (higher = less stable) [kcal/mol]
K117R | -0.03
H62P | -1.1
H62R | -0.36
E135K | 0.22
R41C | -0.44

Same assay, conditions: Escherichia coli (strain K12); pH 3; 49.8 °C; Thermal; CD; glycine-HCl 10 mM; reversible: yes; structure 2RN2; whole UniProt chain shown

Variant | ddG of mutation (higher = less stable) [kcal/mol]
Q113P | 0.2
Y28F R29H G30A R31H | 0.7
H62P | -1
A125T | -0.1

Same assay, conditions: Escherichia coli (strain K12); pH 3; Thermal; CD; glycine-HCl 10 mM; reversible: yes; structure 2RN2; whole UniProt chain shown

Variant | Tm [°C] | change of melting temperature, mutant - wild type (higher = more stable) [°C] | unfolding enthalpy (van 't Hoff) [kcal/mol]
Q113P | 49.2 | -0.6 | 100
Y28F R29H G30A R31H | 47.5 | -2.3 | 92.5
D94E | 49.8 | -1.2 | 95.9
H62P | 53.2 | 3.4 | 110
A125T | 50.2 | 0.4 | 96.4

Same assay, conditions: Escherichia coli (strain K12); pH 5.5; 52 °C; Thermal; CD; Sodium acetate 20 mM; reversible: yes; structure 2RN2; whole UniProt chain shown

Variant | ddG of mutation (higher = less stable) [kcal/mol]
Q113P | 0.6
H62P | -1.1

Same assay, conditions: Escherichia coli (strain K12); pH 5.5; Thermal; CD; Sodium acetate 20 mM; reversible: yes; structure 2RN2; whole UniProt chain shown

Variant | Tm [°C] | change of melting temperature, mutant - wild type (higher = more stable) [°C] | unfolding enthalpy (van 't Hoff) [kcal/mol]
Q113P | 49.9 | -2.1 | 81
D94E | 52 | -1.6 | 92.9
H62P | 56.1 | 4.1 | 102

Same assay, conditions: Escherichia coli (strain K12); pH 5.5; Thermal; CD; Sodium acetate 20 mM; NaCl 0.1 M; reversible: yes; structure 2RN2; whole UniProt chain shown

Variant | Tm [°C] | change of melting temperature, mutant - wild type (higher = more stable) [°C] | unfolding enthalpy (van 't Hoff) [kcal/mol]
G23A | 54.5 | 1.8 | 91.8
A52V | 60.5 | 7.8 | 87.5
H62D | 52.1 | -0.6 | 97.8
H62P | 56.8 | 4.1 | 102
H62R | 54 | 1.3 | 97.1
Q76L | 53.8 | 1.1 | 81.2
E135K | 51.9 | -0.8 | 89.9
R41C | 54.3 | 1.6 | 102

Same assay, conditions: Escherichia coli (strain K12); pH 5.5; 52 °C; Thermal; CD; glycine-HCl 10 mM; reversible: yes; structure 2RN2; whole UniProt chain shown

Variant | ddG of mutation (higher = less stable) [kcal/mol]
Y28F R29H G30A R31H | 0.9
A125T | 0

Same assay, conditions: Escherichia coli (strain K12); pH 5.5; Thermal; CD; glycine-HCl 10 mM; reversible: yes; structure 2RN2; whole UniProt chain shown

Variant | Tm [°C] | change of melting temperature, mutant - wild type (higher = more stable) [°C] | unfolding enthalpy (van 't Hoff) [kcal/mol]
Y28F R29H G30A R31H | 48.8 | -3.2 | 80.5
A125T | 52 | 0 | 88.8

Same assay, conditions: Escherichia coli (strain K12); pH 5.5; 49.8 °C; Thermal; CD; Sodium acetate 20 mM; reversible: yes; structure 2RN2; whole UniProt chain shown

Variant | ddG of mutation (higher = less stable) [kcal/mol]
D94E | 0.4

Same assay, conditions: Escherichia coli (strain K12); pH 5.5; 25 °C; GdnHCl; CD; Sodium acetate 20 mM; reversible: yes; structure 2RN2; whole UniProt chain shown

Variant | ddG of mutation (higher = less stable) [kcal/mol] | denaturant m value [kcal/mol/M] | denaturant midpoint (higher = more stable) [M] | unfolding free energy [kcal/mol]
H62P | -0.74 | 4.98 | 1.98 | 9.89
